Reference: publication PMC10786891, “Massively parallel profiling of RNA-targeting CRISPR-Cas13d”

T1: EsCas13d, nuclease-dead (Eubacterium siraeum, UniProt B0MS50, R295A;H300A;R849A;H854A)
T1 sequence: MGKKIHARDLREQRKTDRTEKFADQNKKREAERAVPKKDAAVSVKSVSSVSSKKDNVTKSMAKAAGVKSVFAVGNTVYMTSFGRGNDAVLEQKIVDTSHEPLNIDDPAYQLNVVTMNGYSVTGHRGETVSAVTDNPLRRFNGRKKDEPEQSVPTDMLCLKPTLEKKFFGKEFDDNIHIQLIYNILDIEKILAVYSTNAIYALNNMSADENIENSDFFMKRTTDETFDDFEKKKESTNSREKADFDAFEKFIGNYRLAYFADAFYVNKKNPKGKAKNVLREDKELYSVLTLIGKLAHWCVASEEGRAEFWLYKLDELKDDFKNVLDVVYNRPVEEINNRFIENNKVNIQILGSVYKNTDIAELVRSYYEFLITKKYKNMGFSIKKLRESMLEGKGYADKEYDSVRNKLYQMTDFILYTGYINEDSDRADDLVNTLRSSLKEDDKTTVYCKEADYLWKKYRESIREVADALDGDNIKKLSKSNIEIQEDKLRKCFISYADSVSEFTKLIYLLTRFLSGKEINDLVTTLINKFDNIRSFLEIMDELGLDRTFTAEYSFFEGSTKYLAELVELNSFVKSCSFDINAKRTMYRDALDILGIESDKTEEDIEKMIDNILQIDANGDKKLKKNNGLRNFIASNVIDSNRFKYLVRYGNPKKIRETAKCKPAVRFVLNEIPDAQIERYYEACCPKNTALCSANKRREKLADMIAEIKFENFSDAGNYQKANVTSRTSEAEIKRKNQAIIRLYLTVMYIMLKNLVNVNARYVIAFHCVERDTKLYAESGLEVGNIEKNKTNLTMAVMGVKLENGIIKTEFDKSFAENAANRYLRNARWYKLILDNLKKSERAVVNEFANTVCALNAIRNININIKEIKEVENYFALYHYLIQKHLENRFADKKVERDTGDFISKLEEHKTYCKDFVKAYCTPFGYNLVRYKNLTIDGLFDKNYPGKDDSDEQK

B1: target 2 MT 5'PFS ACU 3'PFS AAC (mixed)
RNA 1: CACCCGUGCAAAAUUGCAGGGGUCUAAAACCUUCUCCAAAUUGUUUCAUCCU
RNA 2: GGGAAUGGAUCCACAUCUACGAAUUCACUAGGAUGAAACAAUUUGGAGAAGAACAGAUCGGAAGAGCACACGU
B2: target 2 MT 5'PFS UCG 3'PFS CAA (mixed)
RNA 1: CACCCGUGCAAAAUUGCAGGGGUCUAAAACCUUCUCCAAAUUGUUUCAUCCU
RNA 2: GGGAAUGGAUCCACAUCUACGAAUUCUCGAGGAUGAAACAAUUUGGAGAAGCAAAGAUCGGAAGAGCACACGU
B3: target 2 MT 5'PFS UCA 3'PFS AUG (mixed)
RNA 1: CACCCGUGCAAAAUUGCAGGGGUCUAAAACCUUCUCCAAAUUGUUUCAUCCU
RNA 2: GGGAAUGGAUCCACAUCUACGAAUUCUCAAGGAUGAAACAAUUUGGAGAAGAUGAGAUCGGAAGAGCACACGU
B4: target 2 MT 5'PFS AAA 3'PFS AAG (mixed)
RNA 1: CACCCGUGCAAAAUUGCAGGGGUCUAAAACCUUCUCCAAAUUGUUUCAUCCU
RNA 2: GGGAAUGGAUCCACAUCUACGAAUUCAAAAGGAUGAAACAAUUUGGAGAAGAAGAGAUCGGAAGAGCACACGU
B5: target 2 MT 5'PFS GAU 3'PFS AGA (mixed)
RNA 1: CACCCGUGCAAAAUUGCAGGGGUCUAAAACCUUCUCCAAAUUGUUUCAUCCU
RNA 2: GGGAAUGGAUCCACAUCUACGAAUUCGAUAGGAUGAAACAAUUUGGAGAAGAGAAGAUCGGAAGAGCACACGU
B6: target 2 MT 5'PFS ACU 3'PFS AAU (mixed)
RNA 1: CACCCGUGCAAAAUUGCAGGGGUCUAAAACCUUCUCCAAAUUGUUUCAUCCU
RNA 2: GGGAAUGGAUCCACAUCUACGAAUUCACUAGGAUGAAACAAUUUGGAGAAGAAUAGAUCGGAAGAGCACACGU
B7: target 2 MT 5'PFS GAU 3'PFS AGG (mixed)
RNA 1: CACCCGUGCAAAAUUGCAGGGGUCUAAAACCUUCUCCAAAUUGUUUCAUCCU
RNA 2: GGGAAUGGAUCCACAUCUACGAAUUCGAUAGGAUGAAACAAUUUGGAGAAGAGGAGAUCGGAAGAGCACACGU
B8: target 2 MT 5'PFS UCA 3'PFS AUA (mixed)
RNA 1: CACCCGUGCAAAAUUGCAGGGGUCUAAAACCUUCUCCAAAUUGUUUCAUCCU
RNA 2: GGGAAUGGAUCCACAUCUACGAAUUCUCAAGGAUGAAACAAUUUGGAGAAGAUAAGAUCGGAAGAGCACACGU
B9: target 2 MT 5'PFS UAU 3'PFS CUG (mixed)
RNA 1: CACCCGUGCAAAAUUGCAGGGGUCUAAAACCUUCUCCAAAUUGUUUCAUCCU
RNA 2: GGGAAUGGAUCCACAUCUACGAAUUCUAUAGGAUGAAACAAUUUGGAGAAGCUGAGAUCGGAAGAGCACACGU
B10: target 2 MT 5'PFS GUU 3'PFS CAC (mixed)
RNA 1: CACCCGUGCAAAAUUGCAGGGGUCUAAAACCUUCUCCAAAUUGUUUCAUCCU
RNA 2: GGGAAUGGAUCCACAUCUACGAAUUCGUUAGGAUGAAACAAUUUGGAGAAGCACAGAUCGGAAGAGCACACGU
B11: target 2 MT 5'PFS UCG 3'PFS CAU (mixed)
RNA 1: CACCCGUGCAAAAUUGCAGGGGUCUAAAACCUUCUCCAAAUUGUUUCAUCCU
RNA 2: GGGAAUGGAUCCACAUCUACGAAUUCUCGAGGAUGAAACAAUUUGGAGAAGCAUAGAUCGGAAGAGCACACGU
B12: target 2 MT 5'PFS GUU 3'PFS CAG (mixed)
RNA 1: CACCCGUGCAAAAUUGCAGGGGUCUAAAACCUUCUCCAAAUUGUUUCAUCCU
RNA 2: GGGAAUGGAUCCACAUCUACGAAUUCGUUAGGAUGAAACAAUUUGGAGAAGCAGAGAUCGGAAGAGCACACGU
B13: target 2 MT 5'PFS UCG 3'PFS CAC (mixed)
RNA 1: CACCCGUGCAAAAUUGCAGGGGUCUAAAACCUUCUCCAAAUUGUUUCAUCCU
RNA 2: GGGAAUGGAUCCACAUCUACGAAUUCUCGAGGAUGAAACAAUUUGGAGAAGCACAGAUCGGAAGAGCACACGU
B14: target 2 MT 5'PFS GAU 3'PFS AGC (mixed)
RNA 1: CACCCGUGCAAAAUUGCAGGGGUCUAAAACCUUCUCCAAAUUGUUUCAUCCU
RNA 2: GGGAAUGGAUCCACAUCUACGAAUUCGAUAGGAUGAAACAAUUUGGAGAAGAGCAGAUCGGAAGAGCACACGU
B15: target 2 MT 5'PFS GUU 3'PFS CAU (mixed)
RNA 1: CACCCGUGCAAAAUUGCAGGGGUCUAAAACCUUCUCCAAAUUGUUUCAUCCU
RNA 2: GGGAAUGGAUCCACAUCUACGAAUUCGUUAGGAUGAAACAAUUUGGAGAAGCAUAGAUCGGAAGAGCACACGU
B16: target 2 MT 5'PFS ACU 3'PFS AAA (mixed)
RNA 1: CACCCGUGCAAAAUUGCAGGGGUCUAAAACCUUCUCCAAAUUGUUUCAUCCU
RNA 2: GGGAAUGGAUCCACAUCUACGAAUUCACUAGGAUGAAACAAUUUGGAGAAGAAAAGAUCGGAAGAGCACACGU
B17: target 2 MT 5'PFS GAU 3'PFS AGU (mixed)
RNA 1: CACCCGUGCAAAAUUGCAGGGGUCUAAAACCUUCUCCAAAUUGUUUCAUCCU
RNA 2: GGGAAUGGAUCCACAUCUACGAAUUCGAUAGGAUGAAACAAUUUGGAGAAGAGUAGAUCGGAAGAGCACACGU
B18: target 2 MT 5'PFS GCC 3'PFS AAU (mixed)
RNA 1: CACCCGUGCAAAAUUGCAGGGGUCUAAAACCUUCUCCAAAUUGUUUCAUCCU
RNA 2: GGGAAUGGAUCCACAUCUACGAAUUCGCCAGGAUGAAACAAUUUGGAGAAGAAUAGAUCGGAAGAGCACACGU
B19: target 2 MT 5'PFS UCG 3'PFS CAG (mixed)
RNA 1: CACCCGUGCAAAAUUGCAGGGGUCUAAAACCUUCUCCAAAUUGUUUCAUCCU
RNA 2: GGGAAUGGAUCCACAUCUACGAAUUCUCGAGGAUGAAACAAUUUGGAGAAGCAGAGAUCGGAAGAGCACACGU
B20: target 2 MT 5'PFS GUC 3'PFS GAC (mixed)
RNA 1: CACCCGUGCAAAAUUGCAGGGGUCUAAAACCUUCUCCAAAUUGUUUCAUCCU
RNA 2: GGGAAUGGAUCCACAUCUACGAAUUCGUCAGGAUGAAACAAUUUGGAGAAGGACAGAUCGGAAGAGCACACGU
B21: target 2 MT 5'PFS UAU 3'PFS CUC (mixed)
RNA 1: CACCCGUGCAAAAUUGCAGGGGUCUAAAACCUUCUCCAAAUUGUUUCAUCCU
RNA 2: GGGAAUGGAUCCACAUCUACGAAUUCUAUAGGAUGAAACAAUUUGGAGAAGCUCAGAUCGGAAGAGCACACGU
B22: target 2 MT 5'PFS GUU 3'PFS CAA (mixed)
RNA 1: CACCCGUGCAAAAUUGCAGGGGUCUAAAACCUUCUCCAAAUUGUUUCAUCCU
RNA 2: GGGAAUGGAUCCACAUCUACGAAUUCGUUAGGAUGAAACAAUUUGGAGAAGCAAAGAUCGGAAGAGCACACGU
B23: target 2 MT 5'PFS UCA 3'PFS AUC (mixed)
RNA 1: CACCCGUGCAAAAUUGCAGGGGUCUAAAACCUUCUCCAAAUUGUUUCAUCCU
RNA 2: GGGAAUGGAUCCACAUCUACGAAUUCUCAAGGAUGAAACAAUUUGGAGAAGAUCAGAUCGGAAGAGCACACGU
B24: target 2 MT 5'PFS UAU 3'PFS CUA (mixed)
RNA 1: CACCCGUGCAAAAUUGCAGGGGUCUAAAACCUUCUCCAAAUUGUUUCAUCCU
RNA 2: GGGAAUGGAUCCACAUCUACGAAUUCUAUAGGAUGAAACAAUUUGGAGAAGCUAAGAUCGGAAGAGCACACGU
B25: target 2 MT 5'PFS ACU 3'PFS AAG (mixed)
RNA 1: CACCCGUGCAAAAUUGCAGGGGUCUAAAACCUUCUCCAAAUUGUUUCAUCCU
RNA 2: GGGAAUGGAUCCACAUCUACGAAUUCACUAGGAUGAAACAAUUUGGAGAAGAAGAGAUCGGAAGAGCACACGU
B26: target 1 insG 3' of 16,insU 3' of 12 (mixed)
RNA 1: CACCCGUGCAAAAAUGCAGGGGUCUAAAACUGAGCGGAUAACCUCUCUAUGG
RNA 2: GGGAAUGGAUCCACAUCUACGAAUUCGUACCAUAGAGGAGGUUUAUCCGCUCACCGAGAUCGGAAGAGCACACGU
B27: target 1 insA 3' of 2,insG 3' of 2 (mixed)
RNA 1: CACCCGUGCAAAAAUGCAGGGGUCUAAAACUGAGCGGAUAACCUCUCUAUGG
RNA 2: GGGAAUGGAUCCACAUCUACGAAUUCGUACCAUAGAGAGGUUAUCCGCUCAGACCGAGAUCGGAAGAGCACACGU
B28: target 1 insG 3' of 1,insC 3' of 1 (mixed)
RNA 1: CACCCGUGCAAAAAUGCAGGGGUCUAAAACUGAGCGGAUAACCUCUCUAUGG
RNA 2: GGGAAUGGAUCCACAUCUACGAAUUCGUACCAUAGAGAGGUUAUCCGCUCAGCCCGAGAUCGGAAGAGCACACGU

Biological target: T1, EsCas13d, nuclease-dead
Assay: crRNA (strand 1, pre-loaded); Mg2+; 40 mM Tris-HCl pH 7.5, 150 mM NaCl, 6 mM MgCl2, 1 mM DTT, 0.1% Tween-20, 0.2 mg/ml BSA; 25 C; 10 min per concentration, then washed
Details: tags: His6-TwinStrep-SUMO cleaved; N-terminal SNAP kept (SNAP-Surface 488); label: 3' end held by stalled T7 RNA polymerase

Point of comparison: B20, Kd 12.2 ± 2.8 nM. Against it:
- B1 — 2.1-fold lower, 5.7 ± 0.8 nM
- B2 — within error, 10.7 ± 1.9 nM
- B3 — 3-fold lower, 4 ± 1 nM
- B4 — 3-fold lower, 4 ± 0.5 nM
- B5 — 1.5-fold lower, 8 ± 1.1 nM
- B6 — 3-fold lower, 4.1 ± 0.5 nM
- B7 — within error, 10.4 ± 1 nM
- B8 — 2-fold lower, 6.2 ± 2 nM
- B9 — within 1.5-fold, 17.4 ± 1.9 nM
- B10 — within error, 15.3 ± 2.3 nM
- B11 — 2.5-fold higher, ~30 nM
- B12 — within error, 10.9 ± 0.9 nM
- B13 — 2.2-fold higher, 27 ± 8 nM
- B14 — 1.7-fold lower, 7.1 ± 0.6 nM
- B15 — within error, 14.2 ± 1.9 nM
- B16 — 2.6-fold lower, 4.7 ± 1.7 nM
- B17 — within error, 12.3 ± 2 nM
- B18 — within error, 18 ± 5 nM
- B19 — 1.5-fold higher, 18.7 ± 2.6 nM
- B21 — 3.1-fold higher, 38 ± 7 nM
- B22 — 1.8-fold lower, 6.6 ± 0.7 nM
- B23 — 3.4-fold lower, 3.6 ± 0.6 nM
- B24 — 1.9-fold higher, 22.7 ± 2.8 nM
- B25 — 3.3-fold lower, 3.7 ± 0.5 nM
- B26 — within error, 12.3 ± 0.9 nM
- B27 — within error, 10.5 ± 1.2 nM
- B28 — within error, 11 ± 1.4 nM
